Laboratory results taken from patent US20250101096A1 (SERA PROGNOSTICS, published 2025).
Residue numbers refer to the chain shown, from its start. Each block holds one binder with its values, some of them ahead of it.

Legend:
[1] = target: T1, human insulin-like growth factor binding protein 4 (IBP4) (human, UniProt P22692 22-258); assay: SPR, format and IBP4 form not stated
T1 construct: also called IBP4 protein; IGFBP4
T1 sequence: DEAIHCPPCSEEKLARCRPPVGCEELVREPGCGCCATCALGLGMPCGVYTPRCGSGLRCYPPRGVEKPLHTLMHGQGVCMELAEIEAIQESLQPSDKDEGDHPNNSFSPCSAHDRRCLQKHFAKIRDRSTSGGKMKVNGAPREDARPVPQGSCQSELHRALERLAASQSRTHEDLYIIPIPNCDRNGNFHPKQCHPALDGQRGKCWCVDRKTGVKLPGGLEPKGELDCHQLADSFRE

[2] = target: T1, human insulin-like growth factor …; assay: AC-MS, mAb on M-PVA beads, QC2 serum, round 1
[3] = target: T1, human insulin-like growth factor …; assay: AC-MS, mAb on M-PVA beads, pooled pregnant serum
Text: (§1) Anti-IBP4 antibody evaluation and selection. A total of 8 hybridoma clones (1H9.B6, 5C11.A7, 7G11.H4, 3D4.E9, 1G3.A3, 8G4.G11, 5F10.B2, and 3D8.A11) were produced according to the “additional production of anti-IBP4 antibodies” methods disclosed in Example 1 and screened by AC-MS, shown in Table 10 below. Monoclonal antibodies from these clones purified by protein-G affinity chromatography were covalently coupled to M-PVA magnetic beads and used in AC-MS experiments using pooled pregnant serum. The 5B3.G9 anti-IBP4 antibody clone was included in this analysis for comparison to the performance of the additional IBP4 antibodies, as shown and italicized in Table 10 below. Table 10 includes a summary of the additional antibodies Response Ratios and shared epitope binding results as determined by the competitive binding assays of Example 3.

[4] = target: T1, human insulin-like growth factor …; assay: AC-MS, 10 ul QC2 serum, M-PVA beads coupled at 25 ug/ml mAb
Text: (§2) AC-MS performance at reduced IBP4 antibody coupling density. IBP4 antibodies were coupled to M-PVA beads at concentrations of […] in the coupling reaction to test the performance of M-PVA beads with reduced density of coupled antibody. Comparison of the IBP4 response ratios obtained in AC-MS experiments with M-PVA beads with a low density of coupled mAb should reveal differences in the apparent affinity of the antibodies to IBP4 protein.
(§3) M-PVA beads coupled to IBP4 mAbs 1H9.B6, 5C11.A7, 7G11.H4 or 5B3.G9 at each concentration were used in AC-MS experiments with 10 μl of QC2 serum.

[5] = target: T1, human insulin-like growth factor …; assay: AC-MS, mAb on M-PVA beads, QC2 serum, round 2 (beads reused)
[6] = target: T1, human insulin-like growth factor …; assay: AC-MS, mAb on M-PVA beads, QC2 serum, round 3 (beads reused)
[7] = target: T1, human insulin-like growth factor …; assay: AC-MS, 10 ul QC2 serum, M-PVA beads coupled at 100 ug/ml mAb
Text: as §2, §3

[8] = target: T1, human insulin-like growth factor …; assay: AC-MS, 10 ul QC2 serum, M-PVA beads coupled at 400 ug/ml mAb
Text: as §2, §3

[9] = target: T1, human insulin-like growth factor …; assay: AC-MS, 10 ul QC2 serum, M-PVA beads at reduced mAb coupling density
Text: as §2, §3

[10] = target: T1, human insulin-like growth factor …; assay: AC-MS, mAb on M-PVA beads, pooled pregnant serum, peptide …
Text: as §1

C4 Pos Control #4 = assay: ECLIA, single peptide competes with SHBG for the antibody
[11] = target: T2, anti-SHBG antibody clone variant 4G10.F8; assay: as above
T2 construct: Mouse monoclonal; variant form expressed from a standard backbone in CHO cells; also called SHBG (4G10.F8) Anti SHBG v1; SHBG #6
T2 sequence (heavy, as listed by the source, chain 1 of 2): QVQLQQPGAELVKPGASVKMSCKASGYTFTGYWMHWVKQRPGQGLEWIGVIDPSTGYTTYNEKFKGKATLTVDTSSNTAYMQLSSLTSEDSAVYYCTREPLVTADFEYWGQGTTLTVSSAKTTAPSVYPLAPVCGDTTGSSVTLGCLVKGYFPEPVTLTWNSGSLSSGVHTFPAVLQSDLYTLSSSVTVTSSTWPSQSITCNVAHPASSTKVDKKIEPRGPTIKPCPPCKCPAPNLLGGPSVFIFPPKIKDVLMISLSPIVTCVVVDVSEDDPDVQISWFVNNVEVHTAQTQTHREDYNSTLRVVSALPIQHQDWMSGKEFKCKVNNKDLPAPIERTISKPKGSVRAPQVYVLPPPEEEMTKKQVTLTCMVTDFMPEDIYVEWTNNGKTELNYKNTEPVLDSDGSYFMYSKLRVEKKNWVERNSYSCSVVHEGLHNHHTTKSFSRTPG
T2 sequence (light, as listed by the source, chain 2 of 2): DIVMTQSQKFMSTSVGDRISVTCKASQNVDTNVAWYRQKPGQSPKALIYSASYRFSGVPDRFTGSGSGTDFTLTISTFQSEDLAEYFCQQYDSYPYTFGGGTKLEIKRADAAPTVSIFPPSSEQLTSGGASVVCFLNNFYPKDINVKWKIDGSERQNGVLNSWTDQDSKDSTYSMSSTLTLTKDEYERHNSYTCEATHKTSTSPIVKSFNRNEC

[12] = target: T3, anti-SHBG antibody clone variant 13C9.E5; assay: as above
T3 construct: Mouse monoclonal; variant form; also called SHBG (13C9.E5) Anti SHBG v2; SHBG #16
T3 sequence (VH, as listed by the source): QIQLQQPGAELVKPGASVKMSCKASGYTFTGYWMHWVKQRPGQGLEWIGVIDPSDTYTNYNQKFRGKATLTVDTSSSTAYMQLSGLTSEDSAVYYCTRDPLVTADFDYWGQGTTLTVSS

B2: anti-IBP4 antibody 5C11.A7 (antibody, mouse IgG1, kappa, V domains shown)
VH: QVQLQQSGAELVRPGASVTLSCKASGYTFTDYEMHWVRQTPVHGLEWIGAIDTETGGPAYNQKFKGKAILTADKSSSTAYMELRSLTSEDSAVYFCTRARGSRSVYYFDNWGQGTTLTVSS
VL: DIVMTQSQKFMSTSVGDRVSVTCKASQNVGTNVAWYQQKPGHSPKVLIYSASYRHSGVPDRFTGSGSGTDFTLTIGNVQSEDLADYFCQQYDTYPLTFGSGTKLEIKR
notes: Mouse hybridoma mAb raised against FL IBP4; also called IBP4-5C11.A7
- Kd [1]: 1.6 nM
- koff [1]: 0.00074 s⁻¹
- kon [1]: 450000 M⁻¹ s⁻¹
- t1/2 [1]: 15.6 min
- ave RR [2]: 0.651
- ave IBP4 AC-MS RR [3]: 0.548
- ave RR [4]: 0.47
- ave RR [5]: 0.609
- ave RR [6]: 0.619
- ave RR [7]: 0.567
- ave RR [8]: 0.595
- percentage of the IBP4 RR at 25 relative to 400 coupling density [9]: 79%
- Response Ratio [10]: 0.548

B4: 1 (peptide)
peptide: LRPVLPTQSAHDPP
notes: SHBG peptide of pool 1+2+3; also called peptide 1; Individual Peptide 1
- % Unblocked Signal at 0.07 uMolar (C4 Pos Control #4): 93.3%
- % Unblocked Signal at 0.27 uMolar (C4 Pos Control #4): 77.1%
- % Unblocked Signal at 1.08 uMolar (C4 Pos Control #4): 66.3%
- % Unblocked Signal at 0.07 uMolar [11]: 95.8%
- % Unblocked Signal at 0.27 uMolar [11]: 83%
- % Unblocked Signal at 1.08 uMolar [11]: 53.2%
- % Unblocked Signal at 0.07 uMolar [12]: 93.4%
- % Unblocked Signal at 0.27 uMolar [12]: 89.6%
- % Unblocked Signal at 1.08 uMolar [12]: 86.8%

B5: anti-IBP4 antibody 5B3.G9 (antibody, mouse IgG1, kappa)
heavy: EVQLQQSGPELVKPGASAKISCKASGYTFTDYYMNWVKQSHGKSLEWIGDINPNNGGSAYNQKFKGKATLTVDKSSSTAYMELRSLTSEDSAVYYCARWDGGFDYWGQGTTLTVSSAKTTPPSVYPLAPGSAAQTNSMVTLGCLVKGYFPEPVTVTWNSGSLSSGVHTFPAVLQSDLYTLSSSVTVPSSTWPSQTVTCNVAHPASSTKVDKKIVPRDCGCKPCICTVPEVSSVFIFPPKPKDVLTITLTPKVTCVVVDISKDDPEVQFSWFVDDVEVHTAQTKPREEQINSTFRSVSELPIMHQDWLNGKEFKCRVNSAAFPAPIEKTISKTKGRPKAPQVYTIPPPKEQMAKDKVSLTCMITNFFPEDITVEWQWNGQPAENYKNTQPIMDTDGSYFVYSKLNVQKSNWEAGNTFTCSVLHEGLHNHHTEKSLSHSPGK
light: DIVMTQSQKFMSTSVRDRVSVTCKASQNVGTNVAWYQQKPGQSPKALIYSASYRYSGVPDRFTGSGSGTAFTLTISNVQSEDLAEYFCQQYNIYPLTFGAGTKLELKRADAAPTVSIFPPSSEQLTSGGASVVCFLNNFYPRDINVKWKIDGSERQNGVLNSWTDQDSKDSTYSMSSTLTLTKDEYERHNSYTCEATHKTSTSPIVKSFNRNECK
- Kd [1]: 10 nM
- koff [1]: 0.0021 s⁻¹
- kon [1]: 200000 M⁻¹ s⁻¹
- t1/2 [1]: 5.5 min
- ave RR [2]: 0.533
- ave IBP4 AC-MS RR [3]: 0.482
- ave RR [4]: 0.231
- ave RR [5]: 0.534
- ave RR [6]: 0.462
- ave RR [7]: 0.449
- ave RR [8]: 0.47
- percentage of the IBP4 RR at 25 relative to 400 coupling density [9]: 49%
- Response Ratio [10]: 0.482

Further binders by falling Kd [1], results first:

- Kd [1]: 2.8 nM
- koff [1]: 0.00102 s⁻¹
- kon [1]: 370000 M⁻¹ s⁻¹
- t1/2 [1]: 11.3 min
- ave RR [2]: 0.598
- ave IBP4 AC-MS RR [3]: 0.525
- ave RR [4]: 0.404
- ave RR [5]: 0.56
- ave RR [6]: 0.547
- ave RR [7]: 0.492
- ave RR [8]: 0.538
- percentage of the IBP4 RR at 25 relative to 400 coupling density [9]: 75%
- Response Ratio [10]: 0.525
B3: anti-IBP4 antibody 7G11.H4 (antibody, mouse IgG1, kappa, V domains shown)
VH: B2 VH
VL: B2 VL with G30D, V33I, V46A, H55Y
notes: Mouse hybridoma mAb raised against FL IBP4; also called IBP4-7G11.H4

- Kd [1]: 1.5 nM
- koff [1]: 0.0009 s⁻¹
- kon [1]: 600000 M⁻¹ s⁻¹
- t1/2 [1]: 12.8 min
- ave RR [2]: 0.602
- ave IBP4 AC-MS RR [3]: 0.588
- ave RR [4]: 0.479
- ave RR [5]: 0.607
- ave RR [6]: 0.62
- ave RR [7]: 0.562
- ave RR [8]: 0.586
- percentage of the IBP4 RR at 25 relative to 400 coupling density [9]: 82%
- Response Ratio [10]: 0.588
B1: anti-IBP4 antibody 1H9.B6 (antibody, mouse IgG1, kappa, V domains shown)
VH: EVQLQQSGPELVKPGASVKISCKTSGYTFTDYYMNWVKQSHGKSLEWIGDINPNNGGAGYNQKFKGKATLTVDKSSSTAYMELRSLTSEDSAVYYCARWGWDRYFDYWGQGTTLTVSS
VL: B2 VL with T31I, N32D, H42Q, V46A, H55S, G76N, D85E, D92N, T93S, T97A
notes: Mouse hybridoma mAb raised against FL IBP4; also called IBP4-1H9.B6
